Measurements taken from patent US7018836 (UNIVERSITY OF IOWA RESEARCH FOUNDATION, dated 2006).

Target: T1, HIS-tagged human P-TEFb small subunit PITALRE (human, UniProt P50750 1-372)
T1 construct: also called HBS; HIS-tagged human kinase subunit (PITALRE)
Assay: co-expression in baculovirus, co-recovery with the HIS-tagged small subunit from a nickel column

T1 sequence (P50750 whole entry): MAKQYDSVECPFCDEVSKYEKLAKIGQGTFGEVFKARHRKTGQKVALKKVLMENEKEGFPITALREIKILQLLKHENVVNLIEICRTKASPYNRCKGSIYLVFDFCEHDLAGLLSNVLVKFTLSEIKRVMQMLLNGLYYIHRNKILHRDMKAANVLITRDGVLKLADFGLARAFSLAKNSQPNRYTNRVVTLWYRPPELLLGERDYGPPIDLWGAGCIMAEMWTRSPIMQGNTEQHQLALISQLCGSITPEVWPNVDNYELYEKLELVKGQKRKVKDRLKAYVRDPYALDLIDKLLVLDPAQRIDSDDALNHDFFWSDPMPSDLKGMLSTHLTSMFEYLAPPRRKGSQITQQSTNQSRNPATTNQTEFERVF

B1: Drosophila P-TEFb small subunit with a HIS-tag at the carboxyl-terminus (enzyme)
chain: MAHMSHMLQQPSGSTPSNVGSSSSRTMSLMEKQKYIEDYDFPYCDESNKYEKVAKIGQGTFGEVFKAREKKGNKKFVAMKKVLMDNEKEGFPITALREIRILQLLKHENVVNLIEICRTKATATNGYRSTFYLVFDFCEHDLAGLLSNMNVKFSLGEIKKVMQQLLNGLYYIHSNKILHRDMKAANVLITKHGILKLADFGLARAFSIPKNESKNRYTNRVVTLWYRPPELLLGDRNYGPPVDMWGAGCIMAEMWTRSPIMQGNTEQQQLTFISQLCGSFTPDVWPGVEELELYKSIELPKNQKRRVKERLRPYVKDQTGCDLLDKLLTLDPKKRIDADTALNHDFFWTDPMPSDLSKMLSQHLQSMFEYLAQPRRSNQMRNYHQQLTTMNQKPQDNSMIDRVW
notes: also called DBS; Drosophila P-TEFb small (kinase) subunit; not shown: HIS-tag added to the carboxyl-terminus
B1: no binding.
